From patent US9526791B2, “Weakly acidic pH-responsive peptide and liposome containing same” (Taiho Pharmaceutical Co., Ltd., priority 2012, dated 2016)
Read-outs that look alike come from different tables or passages of the source.

Columns and labels:
[1] = format: physicochemical; settings: for Calcein leakage rate (%): calcein-encapsulated liposome, 37° C., 10 minutes; for Leakage of calcein (in words): pH 6.5 (pH changed from 7.4 to 6.5)
Protocol: • (1) After a peptide-containing lipid membrane was prepared as in Example 4, a calcein (Mw: 622.55) 30-mM solution was added, and calcein-encapsulated liposome 1 was prepared as in Example 4. Unencapsulated calcein was removed by gel filtration (Sephadex G50).
To measure the leakage of the encapsulated calcein from the liposomes, the liposomes were diluted and suspended in buffers having different pHs, and then incubated at 37° C. for 10 minutes. The fluorescence (λex: 488 nm, λem: 517 nm) of the leaked calcein was measured by a plate reader (Infinite M200, produced by Tecan). The fluorescence of the leaked calcein when the liposomes were mixed with 1% Triton-X100 was regarded as complete leakage. The leakage rate was calculated by the following formula. […] Leakage rate(%)=(Fsample−FpH 7.4)/(Ftriton−FpH 7.4)×100
Fsample Fluorescence of calcein leaked from the liposomes at each pH
FpH 7.4: Fluorescence of calcein leaked from the liposomes at a pH of 7.4
Ftriton: Fluorescence of calcein when the liposomes were mixed with 1% Triton-X100.
Calcein was encapsulated in liposome 1 obtained in Example 4, and liposomes 2 and 3 obtained in Example 5, and pH responsiveness was examined as in Test Example 1.
The calcein leakage rate of the calcein-encapsulated liposomes obtained in Examples 4, 6, and 7, and Comparative Examples 4 to 6 at a pH of 7.4 and a pH of 6.5 was calculated as in Test Example 1.

[2] = Observation of liposomes into which comparative compound 3 was introduced (aggregation); format: physicochemical; settings: pH 6.5 or less
Protocol: Comparative liposome 3 into which comparative compound 3 obtained in Comparative Example 3 had been introduced was produced according to the method described in Example 4, and calcein-encapsulated comparative liposome 3 was prepared by the same production method as in Test Example 1.
Thus, the pH-responsiveness was insufficient.

[3] = CD spectra of peptide alone or peptide-introduced liposome under different pH conditions; format: physicochemical; settings: PBS (−), peptide concentration 20 μM
Protocol: Peptide compound 1 obtained in Example 1 alone and a peptide-introduced liposome obtained according to Example 4 (each having a peptide concentration of 20 μM) were suspended in PBS (−) with different pHs, and CD (circular dichroism) spectra were recorded on a J-720WI spectropolarimeter (produced by JASCO Corporation).
The “α-helix” represents an α-helix structure, and the “random coil structure” represents a state in which a clear secondary structure is not formed.

| Sequence | Calcein leakage rate (%) ([1]; pH 6.5) | Calcein leakage rate (%) ([1]; pH 7.4) | Leakage of calcein (in words) [1] | Calcein fluorescence on attempted encapsulation (liposome stability) ([1]; pH 7.4) | Aggregation of liposomes [2] | Secondary structure from CD spectrum ([3]; as the pH was reduced) | Secondary structure from CD spectrum ([3]; pH 7.4) |
| --- | --- | --- | --- | --- | --- | --- | --- |
| EGEGLALLAHALLAHAALAHAALA [Peptide compound 3] | 65 | 0 | – | – | – | – | – |
| GHHGLALLHALHLAAAALHAAALA [Peptide compound 2] | 90 | 0 | – | – | – | – | – |
| HGHGGGGGGGGGAHALLAHAALAH [compound 2] | 30 | 0 | remarkably reduced | – | – | – | – |
| HGHGLALLAHALLAHAAAAL [compound 3] | – | – | – | fluorescence intensity at the same level as that when Triton treatment was performed | remarkably aggregated | – | – |
| HGHGLALLAHALLAHAALAHAALA [Peptide compound 1] | 100 | 0 | – | – | – | sequentially converted into a random coil structure | α-helix |
| HHGGLLLLHHHAAAAALLLAAAAA [compound 1] | 30 | 0 | remarkably reduced | – | – | – | – |
